Experiments:
[1] = molecular target: T1, TldD/E (purified TldD and TldE combined) (Escherichia coli, UniProt P0AGG8); test: inhibition of angiotensin II hydrolysis; format: biochemical; conditions: substrate angiotensin II
T1 construct: with Metalloprotease PmbA
T1 sequence (P0AGG8 1-481): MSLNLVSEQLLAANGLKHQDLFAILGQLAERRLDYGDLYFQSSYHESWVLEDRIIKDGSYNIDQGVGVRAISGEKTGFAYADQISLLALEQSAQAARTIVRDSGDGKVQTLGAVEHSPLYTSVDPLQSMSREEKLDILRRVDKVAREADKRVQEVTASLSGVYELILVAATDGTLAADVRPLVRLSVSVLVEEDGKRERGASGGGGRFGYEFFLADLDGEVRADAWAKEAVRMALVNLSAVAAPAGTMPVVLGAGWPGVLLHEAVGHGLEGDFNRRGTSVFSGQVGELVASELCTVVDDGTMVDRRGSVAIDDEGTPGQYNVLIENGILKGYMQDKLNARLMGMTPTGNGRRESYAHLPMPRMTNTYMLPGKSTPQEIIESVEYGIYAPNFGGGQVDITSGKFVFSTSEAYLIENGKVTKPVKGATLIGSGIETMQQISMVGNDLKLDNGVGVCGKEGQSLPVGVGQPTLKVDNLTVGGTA
T1 sequence (P0AFK0 1-450 partner): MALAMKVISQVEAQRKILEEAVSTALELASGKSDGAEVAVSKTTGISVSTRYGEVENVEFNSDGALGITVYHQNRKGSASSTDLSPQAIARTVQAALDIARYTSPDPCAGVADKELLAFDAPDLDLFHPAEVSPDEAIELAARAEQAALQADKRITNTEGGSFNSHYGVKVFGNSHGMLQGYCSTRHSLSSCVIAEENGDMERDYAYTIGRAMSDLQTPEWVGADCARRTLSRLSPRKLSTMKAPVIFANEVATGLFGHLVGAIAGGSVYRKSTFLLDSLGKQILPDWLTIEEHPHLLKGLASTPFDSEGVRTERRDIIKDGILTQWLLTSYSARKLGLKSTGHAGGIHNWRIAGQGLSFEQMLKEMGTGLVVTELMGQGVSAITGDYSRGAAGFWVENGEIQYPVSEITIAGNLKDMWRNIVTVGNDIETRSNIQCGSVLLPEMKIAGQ

[2] = molecular target: N-terminally 6xHis-tagged E. coli TldD (pET28b, purified separately) (E. coli) (UniProt P0AGG8); test: AUC; sedimentation equilibrium, 0.2 mg/ml protein in 50 mM Tris-HCl pH 7.5, 100 mM NaCl, 10000 rpm, 20 C, single species model
[3] = molecular target: T2, His-tagged E. coli TldD co-expressed with untagged TldE (pColA-Duet, MCS I) (E. coli, UniProt P0AGG8 1-481, Gly to Asp at position 401); test: pull-down; Ni affinity chromatography of extracts of E. coli co-overproducing His-tagged TldD and untagged TldE; wash ~20 CV with 1 M NaCl, 50 mM imidazole, 0.1% Triton X-100; elution with 250 mM imidazole; conditions: partners not purified
T2 construct: TldD of E. coli MG1655, cloned into MCS I of pColA-Duet (BamHI/HindIII); residues 2-481 seen in the crystals; Zn in the active site (grown with 50 uM ZnCl2 for crystals); also called TldD-His; His-tagged TldD; source: E. coli BL21 (DE3) Gold, co-overproduced with TldE
T2 sequence (looked up): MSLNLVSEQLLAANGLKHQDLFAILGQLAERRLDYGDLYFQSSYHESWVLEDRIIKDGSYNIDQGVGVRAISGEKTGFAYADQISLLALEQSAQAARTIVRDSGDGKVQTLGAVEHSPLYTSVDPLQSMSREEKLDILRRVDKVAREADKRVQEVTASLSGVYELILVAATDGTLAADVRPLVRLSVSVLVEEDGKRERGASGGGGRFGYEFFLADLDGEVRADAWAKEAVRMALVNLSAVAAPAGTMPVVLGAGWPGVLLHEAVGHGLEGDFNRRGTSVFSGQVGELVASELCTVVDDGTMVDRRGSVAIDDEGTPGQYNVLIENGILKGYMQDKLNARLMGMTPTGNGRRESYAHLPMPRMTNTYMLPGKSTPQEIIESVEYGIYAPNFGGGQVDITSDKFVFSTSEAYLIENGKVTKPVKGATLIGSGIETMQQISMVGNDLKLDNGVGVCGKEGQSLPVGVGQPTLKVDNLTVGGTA

[4] = molecular target: T3, E. coli TldD His262Ala mutant (subunit of the TldD^H262A/E complex) (E. coli, UniProt P0AGG8 1-481, H262A | Gly to Asp at position 401); test: crystal structure; X-ray structures of the co-purified TldD/E heterodimer (wild type and TldD mutants), two heterodimers in the asymmetric unit; condition 1 (phosphate, PEG 3350) or condition 2 (PEG 1500, MMT pH 8.0), 20 C; conditions: both partners purified
T3 construct: TldD of E. coli MG1655 with H262A; Gly401 to Asp was introduced into all the models; source: E. coli, mutant protein complex with TldE
T3 sequence (looked up): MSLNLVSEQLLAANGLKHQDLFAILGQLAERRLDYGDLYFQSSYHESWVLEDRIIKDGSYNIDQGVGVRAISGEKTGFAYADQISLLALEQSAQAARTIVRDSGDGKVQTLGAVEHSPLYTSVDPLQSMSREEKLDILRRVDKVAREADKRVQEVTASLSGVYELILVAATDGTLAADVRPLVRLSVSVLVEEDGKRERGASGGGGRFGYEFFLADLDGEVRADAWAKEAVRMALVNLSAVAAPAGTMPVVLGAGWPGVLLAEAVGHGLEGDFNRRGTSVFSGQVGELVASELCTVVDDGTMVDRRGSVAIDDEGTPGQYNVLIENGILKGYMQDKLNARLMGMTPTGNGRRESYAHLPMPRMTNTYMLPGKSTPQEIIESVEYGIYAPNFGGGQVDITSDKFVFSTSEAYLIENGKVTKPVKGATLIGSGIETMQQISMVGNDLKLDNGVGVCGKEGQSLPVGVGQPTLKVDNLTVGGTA

[5] = molecular target: T4, E. coli TldD Glu263Ala mutant (subunit of the TldD^E263A/E complex) (E. coli, UniProt P0AGG8 1-481, E263A | Gly to Asp at position 401); test: as above; conditions: both partners purified
T4 construct: TldD of E. coli MG1655 with E263A; Gly401 to Asp was introduced into all the models; The methods say only that the mutants were made by overlap extension PCR and 'cloned and produced as described above'; also called Glu263Ala TldD mutant; source: E. coli, mutant protein complex with TldE
T4 sequence (looked up): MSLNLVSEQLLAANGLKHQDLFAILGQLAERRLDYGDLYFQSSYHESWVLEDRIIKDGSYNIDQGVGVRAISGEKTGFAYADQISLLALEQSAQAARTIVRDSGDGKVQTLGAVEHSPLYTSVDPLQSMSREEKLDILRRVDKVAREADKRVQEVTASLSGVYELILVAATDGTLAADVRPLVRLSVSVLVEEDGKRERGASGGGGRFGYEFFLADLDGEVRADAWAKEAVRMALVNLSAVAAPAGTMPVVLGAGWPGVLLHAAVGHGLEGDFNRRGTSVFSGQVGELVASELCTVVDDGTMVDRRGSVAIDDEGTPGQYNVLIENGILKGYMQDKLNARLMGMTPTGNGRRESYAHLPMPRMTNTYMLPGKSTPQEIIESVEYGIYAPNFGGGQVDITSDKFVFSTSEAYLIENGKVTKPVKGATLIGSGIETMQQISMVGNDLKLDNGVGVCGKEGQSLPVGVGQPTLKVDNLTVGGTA

[6] = molecular target: the molecule itself; test: AUC; sedimentation equilibrium, 0.2 mg/ml protein in 50 mM Tris-HCl pH 7.5, 100 mM NaCl, 10000 rpm, 20 C, single species model

CCCCC[C@H](CC(=O)NO)C(=O)N[C@H](C(=O)N1CCC[C@H]1CO)C(C)C [Actinonin]
inhibition of angiotensin II hydrolysis [1]: actinonin (deformylase inhibitor) efficiently prevented angiotensin II hydrolysis by TldD/E

N-terminally 6xHis-tagged E. coli TldD (pET28b, purified separately) (from UniProt P0AGG8 1-481) (natural protein)
stoichiometry N [2]: 2

B1: untagged E. coli TldE co-expressed with His-tagged TldD (pColA-Duet, MCS II) (natural protein, UniProt P0AFK0 1-450, looked up)
chain: MALAMKVISQVEAQRKILEEAVSTALELASGKSDGAEVAVSKTTGISVSTRYGEVENVEFNSDGALGITVYHQNRKGSASSTDLSPQAIARTVQAALDIARYTSPDPCAGVADKELLAFDAPDLDLFHPAEVSPDEAIELAARAEQAALQADKRITNTEGGSFNSHYGVKVFGNSHGMLQGYCSTRHSLSSCVIAEENGDMERDYAYTIGRAMSDLQTPEWVGADCARRTLSRLSPRKLSTMKAPVIFANEVATGLFGHLVGAIAGGSVYRKSTFLLDSLGKQILPDWLTIEEHPHLLKGLASTPFDSEGVRTERRDIIKDGILTQWLLTSYSARKLGLKSTGHAGGIHNWRIAGQGLSFEQMLKEMGTGLVVTELMGQGVSAITGDYSRGAAGFWVENGEIQYPVSEITIAGNLKDMWRNIVTVGNDIETRSNIQCGSVLLPEMKIAGQ
notes: TldE (PmbA) of E. coli MG1655, cloned into the second MCS of pColA-Duet (NdeI/XhoI), untagged; residues 6-450 seen in the crystals; also called PmbA; TldE subunit; source: E. coli BL21 (DE3) Gold, co-overproduced with His-tagged TldD
binding result [3]: binds
binding result [4]: binds
binding result [5]: binds

B2: N-terminally 6xHis-tagged E. coli TldE (pET28b, purified separately) (natural protein, UniProt P0AFK0 1-450, looked up)
chain: MALAMKVISQVEAQRKILEEAVSTALELASGKSDGAEVAVSKTTGISVSTRYGEVENVEFNSDGALGITVYHQNRKGSASSTDLSPQAIARTVQAALDIARYTSPDPCAGVADKELLAFDAPDLDLFHPAEVSPDEAIELAARAEQAALQADKRITNTEGGSFNSHYGVKVFGNSHGMLQGYCSTRHSLSSCVIAEENGDMERDYAYTIGRAMSDLQTPEWVGADCARRTLSRLSPRKLSTMKAPVIFANEVATGLFGHLVGAIAGGSVYRKSTFLLDSLGKQILPDWLTIEEHPHLLKGLASTPFDSEGVRTERRDIIKDGILTQWLLTSYSARKLGLKSTGHAGGIHNWRIAGQGLSFEQMLKEMGTGLVVTELMGQGVSAITGDYSRGAAGFWVENGEIQYPVSEITIAGNLKDMWRNIVTVGNDIETRSNIQCGSVLLPEMKIAGQ
notes: 50.5 kDa with the tag; also called His-TldE; PmbA; source: E. coli BL21 (DE3) Gold, purified (Ni-NTA)
stoichiometry N [6]: 2

Reference: paper PMC5810440, “The Origins of Specificity in the Microcin-Processing Protease TldD/E” (Structure(London, England:1993), 2017)
